Data from the nanobody polyreactivity screen of Harvey et al. (2022).

Assay: yeast display, Sf9 membrane polyspecificity reagent, FACS + sequencing; frameworks hold sequencing errors
Outline: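 Galactose induction of a Saccharomyces cerevisiae BJ5465 synthetic nanobody display library ran 36–48 hours. The cells were then stained for 1 hour at 4 °C with 10% biotinylated, detergent-solubilized Sf9 membrane reagent, pulled down on streptavidin microbeads and FACS-sorted into low and high (top ~1%) gates on expression and reagent-binding fluorescence. Labels for polyreactivity follow the gate of origin.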

Sequence	polyreactivity (PSR sort gate)
QVQLVESGGGLVQAGGSLRLSCAASGIFRRYAMGWYRQAPGKERELVAAISYSGGSTEYADSVKGRFTISRDNAKNTVYLQMNSLKPEDTAVYYCAAVNRPRPRRSDYWGQGTQVTVSS	high polyreactivity
QVQLVESGGGLVQAGGSLRLSCAASGIFTNNAMGWYRQAPGKERELVAAITIRGGSTYYADSVKGRFTISRDNAKNTVYLQMNSLKPEDTAVYYCAARGLGYTDLRSVHMYYWGQGTQVTVSS	high polyreactivity
QVQLVESGGGLVQAGGSLRLSCAASGIFTYTMGWYRQAPGKERELVAAITNGSTYYADSVKGRFTISRDNAKNTVYLQMNSLKPEDTAVYYCAADRSSAYRWRSAGYYKYDYWGQGTQVTVSS	low polyreactivity
QVQLVESGGGLVQAGGSLRLSCAASGIFVSDAMGWYSQAPGKVRELVAAIRYSGDSTYYADSVKGRFTISRDNAKNTVYLQMNSLKPEDTAVYYCAATKGWTRYEYWGQGTQVTVSS	low polyreactivity
QVQLVESGGGLVQAGGSLRLSCAASGIFVSYAMGWYRQAPGKERELVAAISWNGGSTYYADSVKGRFTISRDNAKNTVYLQMNSLKPEDTAVYDCAARAYFSYRGYVTDYDYWGQGTQVTVSS	high polyreactivity
QVQLVESGGGLVQAGGSLRLSCAASGIFVYYAMGWYRQSPGKERELVAAISSSGGSTYYADSVKGRFTISRDNAKNTVYLQMNSLKREDTAVYYCNTLAYPSDRFEYWGQGTQVTVSS	high polyreactivity
QVQLVESGGGLVQAGGSLRLSCAASGIIFAHYAMGWYRQAPGKERELVAAISRGGSSTYYADSVKGRFTISRDNAKNTVYLQMNSLKPEDTAVDYCAAYGPKVIGPKTSYSSSRYDYWGQGTQVTVSS	high polyreactivity
QVQLVESGGGLVQAGGSLRLSCAASGIIFAPYAMGWYRHPPGKERELVAAITDSGGSTYYADSVKGRFTISRDNSKNTVYLQMKSLKPEDTAVYYCAVDSNPPDWWAVIYGYWGQGTQVTVSS	low polyreactivity
QVQLVESGGGLVQAGGSLRLSCAASGIIFARNAMGWYRQAPGKERELVAAISSRSGSTYYADSVKGRFTISRDNAKNTVYVQMNSLKPEDTAVYYCNAVYAGRFGSHYWGQGTQVTVSS	high polyreactivity
QVQLVESGGGLVQAGGSLRLSCAASGIIFARYAMGWYRQAPGKERELVASINWTGGNTYADSVKGRFTISRDNAKNTVYLQMNSLKPEDTAVYYCARDFSPGSSDPKASISFDHWGQGTQVTVSS	low polyreactivity
QVQLVESGGGLVQAGGSLRLSCAASGIIFASNGMGWSRQPPGKERELVAAISSGGSTNYADSVKGRFTISRDNAKNTVYLQMNSLKPEDTAVYYCAAVRWYREYDYWGQGTQVTVSS	low polyreactivity
QVQLVESGGGLVQAGGSLRLSCAASGIIFATYAMGWYRQAPGKERELVASISTGDSTNYADSVKGRFTISRDNAKNTVYLQMNSLKPEDTAVDYCNADSYPYYVYGSNDYWGQGTQVTVSS	low polyreactivity
QVQLVESGGGLVQAGGSLRLSCAASGIIFATYAMGWYRQAPGKERELVASISTGDSTNYADSVKGRFTISRDNAKTTVYLQMNSLKPEDTAVYYCNADSYPYYVYGSNDYWGQGTQVTVSS	low polyreactivity
QVQLVESGGGLVQAGGSLRLSCAASGIIFAYNAMGWYRQAPGKERELVATITDSGGSTSYADSVKGRFTISRDNAKNTVYLQMNSLKPEDTAVYYCAVLPVYWYWRNYVYLSGYDYWGQVTQVTVSS	low polyreactivity
QVQLVESGGGLVQAGGSLRLSCAASGIIFAYYALGWYRQAPGKERELVAGITQSGGDTYYADSVKGRFTISRDNAKNTVYLQLNSLKPEDTAVYYCAAGWWGYDYWGQGTQVTVSS	high polyreactivity
QVQLVESGGGLVQAGGSLRLSCAASGIIFAYYAMGWYRQAPGKERELVAAIDYSGASTYYADSVKGRFTISRDNAKNTVYLQMNSLKPEDTAVYYCAKYQYDYYTYDYWGQGTQVTVSS	low polyreactivity
QVQLVESGGGLVQAGGSLRLSCAASGIIFAYYAMGWYRQAPGKERELVASITNTGSTYYADSVKGRFTISRDNAKNTVYLQMNSLKPEDTAVYYCNAVLSSNTKWRYPGDYWGQGTQVTVSS	low polyreactivity
QVQLVESGGGLVQAGGSLRLSCAASGIIFDCNSMGWYRQAPGKERELVAANTSSTDSTYYADSVKGRFTISRDNAKNTVYLQLNSLKPEDTAVYYCAAAYPSKTFDYWGQGTQVTESS	low polyreactivity
QVQLVESGGGLVQAGGSLRLSCAASGIIFDDNTMGWYRQAPGKERELVAAISSGGRTYYADSVKGRFTISRDNAKYTVYLQMNSLKPEDTAVYYFNVDIYTYIASNGELDYWGQGTQVTVSS	low polyreactivity
QVQLVESGGGLVQAGGSLRLSCAASGIIFDEYAMGWYRQAPGKERELVAVIDWSGGSTYYADSVKGRFTISRDNAKKTVYLQMNSLKPEVTAVYYCAAEDDSSTPEFDYWGQGTQVTVSS	low polyreactivity
QVQLVESGGGLVQAGGSLRLSCAASGIIFDGNAMGWYRQAPGKERELVAAISSRGSRTYYADSVKGRFTISRDHAKNTVYLQMNSLKPEDTAVYYCNAGYGFRSYGYDPWGQGTQVTVSS	high polyreactivity
QVQLVESGGGLVQAGGSLRLSCAASGIIFDGNAMGWYRQAPGKERELVAAISSRGSRTYYADSVKGRFTISRDNAKNTVYLQMNSLKPEDTAVYSCNAGYVFRSYGYDPWGQGTQVTVSS	high polyreactivity

Sequence	polyreactivity (PSR sort gate)
QVQLVESGGGLVQAGGSLRLSCAASGIIFDGYAMGWYRQAPGKERELVAAISRRGGSTYYADSVKGRFTISRDNAKNTVYLQMNSLKPEDTAVYYCAAEYVYWRIGQYDYWGQGTQVTVSS	high polyreactivity
QVQLVESGGGLVQAGGSLRLSCAASGIIFDINAMGWYRQAPGKERELVAAITTSVDSTYYADSVKGRFTISRDTAKNTVYLQMNSLKPEDTAVYYCAVAFVQFTQYDYWGQGTQVTVSS	low polyreactivity
QVQLVESGGGLVQAGGSLRLSCAASGIIFDKNAMGWYRQAPGKERELVAVITRGGSTYYADSVKGRFTISRDNAKNTVYLQMNSLKPEDTAVYYCAARYTPGFGYWGQGTQVTVSS	high polyreactivity
QVQLVESGGGLVQAGGSLRLSCAASGIIFDSYAMGWYRQAPGKERELVAAITSDSGRTYYADSVKGRFTISRDNAKNTVYLQMNSLKPEDTAVYYCAKRWDGPYDYWGHGTQVTVSS	low polyreactivity
QVQLVESGGGLVQAGGSLRLSCAASGIIFDTYAMGWYRPAPGKEREFVARISYSGGTTYYADSVKGRFTSSRDNAKNTVYLQMNSLKPEDTAVYYCATVSRRFYRWSSRYDYWGQGTQVTVSS	high polyreactivity
QVQLVESGGGLVQAGGSLRLSCAASGIIFDTYAMGWYRQAPGKERELVAAISRSGDTTYYADSVKGRFTISRDNAKNTVYLQMNSLKPEDTAVYYCNRGNRWNFDSWGQGTQVTVSS	high polyreactivity
QVQLVESGGGLVQAGGSLRLSCAASGIIFDYTAMGWYRQAPGKERELVAAITSTDNTNYADSVKGRFTISRDNAKNTVYLQMNSLKPEDTAVYYCNTDYWLSVVYAMDYWGQGTQVTVSS	low polyreactivity
QVQLVESGGGLVQAGGSLRLSCAASGIIFDYYAMGWYRQAPGKERELVATITSGGSTNYADSVKGRFTISRDNAKNTVYLQMNSLKPEDTAVYYCAKEYFATWLIPKYDYWGQGTQVTVSS	low polyreactivity
QVQLVESGGGLVQAGGSLRLSCAASGIIFEGKARGWYRQAPGTERELVAAISTSTGRTYYADSVKGRFTISRDNAKNTVYLQINSLKPEDTAVYYCAAYIRTTRFDYWGQGTQVTVSS	high polyreactivity
QVQLVESGGGLVQAGGSLRLSCAASGIIFEGYAMGWYRQAPGKERELVAAISQSGGSTRYADSVKGRFTISRDNAKNTVYLQMNSLKPEDTAVYYCAKEVWNWGPYYYWGQGTQVTVSS	low polyreactivity
QVQLVESGGGLVQAGGSLRLSCAASGIIFELYAMGWYRQAPGKEREFVAAINFSDGSTDYADSVKGRFTISRDNAKNTVYLQMNSLKPEDTAVYYCNADTIAYGSIIHGYWGQGTQVTVSS	low polyreactivity
QVQLVESGGGLVQAGGSLRLSCAASGIIFESYAMGWYRQAPGKERELVAAISWDGGSTYYADSVKGRFTISRDNAKNTVYLQMNSLKPEDTAVYYCAAESYGIYDGYDYWGQGTQVTVSS	high polyreactivity
QVQLVESGGGLVQAGGSLRLSCAASGIIFEYYAMGWYRQAPGKERELVAAITRGGSTYYADSVKGRFTISRDNAKNTVYLQMNSLKPEDTAVYYCAADRYYYEYEYWGQGTQVTVSS	low polyreactivity
QVQLVESGGGLVQAGGSLRLSCAASGIIFFKYGMGWYRQAPGKERELVAAITSGGSTYYADSVKGRFTISRDNAKNTVYLQMNSLKPEDTAVYYCNAQRYWRKVWEYESWGQGTQVTVSS	low polyreactivity
QVQLVESGGGLVQAGGSLRLSCAASGIIFFLYAMGWNRQAPGKERELVAAISSGGSTYYADSVKGRFTISRDNAKYTVYLQMNSLKPEDTAVYYFIARYWPFRYYYWGQGTQVTVSS	high polyreactivity
QVQLVESGGGLVQAGGSLRLSCAASGIIFFSNTMGWYRQAPGKEREFVAAITWSTGNTYYADSVKGRFTISRDNAKNTVYLQMNSLKPEDTAVYYCYAEYLVITWYGGVEFDYWGQGTEVTVSS	low polyreactivity
QVQLVESGGGLVQAGGSLRLSCAASGIIFGGYAMGWYRQAPGKERELVAAIDSSGSSTYYADSVKGRFTISRDNAKNTVYLQMNSLKPEDTAVYYCNAASSGHSGRLTSIINDYWGQGTQVTVSS	high polyreactivity
QVQLVESGGGLVQAGGSLRLSCAASGIIFGLNAMGWYRQAPGKERELVAAIRRRGGSTYYADSVKGRYTISRDNAKTTVYLQMNSLKPEDTAVYYCAAAGGRYSRAAYDYWGQGTQVTVSS	low polyreactivity
QVQLVESGGGLVQAGGSLRLSCAASGIIFGLYAMGWYRQAPGKERELVAAITRSGGRTYYADSVKGRFTISRDNAKNTVYFQMNSLKPEDTAVYFCAADASGHSYDYWGQGTEVTVSS	high polyreactivity
QVQLVESGGGLVQAGGSLRLSCAASGIIFGRYAMGWYRQAPGKERELVAAINASGGSTYYADSVKGRFTISRDNAKNTVYLQMNSLKPEDTAVYYCATVHVWGFVYVGSGYWGQGTQVTVSS	high polyreactivity
QVQLVESGGGLVQAGGSLRLSCAASGIIFGRYAMGWYRQAPGKERELVAAINGSGGSTYYADSVKGRFTISRDNAKNTVYLQMNSLKPEDTAVYYCAANGFLRNGYWGQGTQVTVSS	high polyreactivity
